Test results from US7851591 (Dana-Farber, dated 2010).

What was measured:
human HLA-A*0201 [1] = molecular target: T1, human HLA-A*0201 (human); experiment: T2 cell assay, 50 µg/ml peptide plus 5 µg/ml b2m for 18 h, flow cytometry with mAb BB7.2; (MFI with peptide - MFI without)/MFI without
T1 construct: In the T2 assay the MHC stands on the cell surface; also called HLA-A2

human HLA-A*0201 [2] = molecular target: T1, human HLA-A*0201; experiment: T2 cell assay: peptide plus beta2-microglobulin pulsed 18 h, HLA-A*0201 surface expression by flow cytometry with mAb BB7.2

| Binder | Fluorescence Index (human HLA-A*0201 [1]) | binding result (human HLA-A*0201 [2]) |
| --- | --- | --- |
| AHTKDGFNF (Only the start position aa98 is printed) [A98-Id idiotype peptide (AHTKDGFNF), negative control] | 0 | no binding (tested: 50 µg/ml) |
| HFLLWKLIA [I540-S, scrambled hTERT I540 peptide (HFLLWKLIA), negative control] | 0.2 | no binding (tested: 50 µg/ml) |
| ELLRSFFYV (Only the start position aa555 is printed; the end of the range follows from the length of the nonapeptide) [hTERT peptide E555 (ELLRSFFYV)] | 2.2 |  |
| RLVDDFLLV (Only the start position aa865 is printed; the end of the range follows from the length of the nonapeptide) [hTERT peptide R865 (RLVDDFLLV)] | 2.2 |  |
| ILAKFLHWL (Only the start position aa540 is printed; the end of the range follows from the length of the nonapeptide; also called hTERT I540) [hTERT peptide I540 (ILAKFLHWL)] | 3.1 |  |
